B1: CNTNAP2, Q9UHC6 (peptide)
chain: IDESKKEWLI
B2: CRIPT, Q9P021 (peptide)
chain: DTKNYKQTSV
B3: NF2, P35240;P35240-1 (peptide)
chain: KSRVAFFEEL

In general, pKd refers to −log10 of the Kd, conventionally taken in molar units.

Chain of LAP2, Q96RT1 (Q96RT1 other isoform, or with tags, fused parts or gaps): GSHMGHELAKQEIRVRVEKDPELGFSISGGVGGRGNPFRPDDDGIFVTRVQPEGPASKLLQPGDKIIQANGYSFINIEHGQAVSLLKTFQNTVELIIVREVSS
Chain of IL16_4, Q14005 (Q14005 1229-1329): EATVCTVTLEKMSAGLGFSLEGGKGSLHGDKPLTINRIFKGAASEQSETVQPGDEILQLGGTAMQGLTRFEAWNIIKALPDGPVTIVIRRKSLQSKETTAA
Chain of SCRIB_1, Q14160 (Q14160 718-814): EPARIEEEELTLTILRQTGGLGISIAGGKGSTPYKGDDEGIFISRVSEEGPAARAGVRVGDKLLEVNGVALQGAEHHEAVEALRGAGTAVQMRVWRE
Chain of Inadl_6, Q8NI35 (Q8NI35 1058-1167): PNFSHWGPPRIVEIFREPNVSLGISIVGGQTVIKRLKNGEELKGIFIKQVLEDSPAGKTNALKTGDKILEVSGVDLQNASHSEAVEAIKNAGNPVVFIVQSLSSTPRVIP
Chain of NHERF2_2, Q15599 (Q15599 142-238): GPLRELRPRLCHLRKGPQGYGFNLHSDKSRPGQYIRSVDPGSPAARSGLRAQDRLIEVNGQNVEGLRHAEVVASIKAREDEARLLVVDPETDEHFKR

The target in the first test is T1, APBA2_1, Q99767.
T1 sequence (Q99767 563-664, limits assumed, looked up): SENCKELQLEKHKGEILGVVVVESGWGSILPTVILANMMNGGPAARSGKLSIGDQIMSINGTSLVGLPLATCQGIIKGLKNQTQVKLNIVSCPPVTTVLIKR
The experiment in a line: holdup assay. The arrangement: key: below the threshold = too weak to quantify, mostly under pKd 3.1 to 4. The settings on record: plain residues with an end cap or a label only (N-terminal biotin on a linker: ado-ado).
On to B1, for which the pKd result is on record as “below the threshold”.
As for B2, the pKd entry is reported as “below the threshold”.

Another test deals with T2, APBA3_1, O96018.
T2 sequence (O96018 389-490, limits assumed, looked up): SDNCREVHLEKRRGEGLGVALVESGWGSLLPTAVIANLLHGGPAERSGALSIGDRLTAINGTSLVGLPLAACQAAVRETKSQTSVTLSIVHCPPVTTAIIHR
The experiment in a line: holdup assay. The arrangement: key: below the threshold = too weak to quantify, mostly under pKd 3.1 to 4. The following applies: plain residues with an end cap or a label only (N-terminal biotin on a linker: ado-ado).
Turning to B1, the pKd entry was “below the threshold”.
Still for that read-out and setting: next, B2: “below the threshold”.
For B3, the pKd result is on record as “below the threshold”.

For the next test, the target named is T3, DFNB31_2, Q9P202.
T3 sequence (Q9P202 274-371, limits assumed, looked up): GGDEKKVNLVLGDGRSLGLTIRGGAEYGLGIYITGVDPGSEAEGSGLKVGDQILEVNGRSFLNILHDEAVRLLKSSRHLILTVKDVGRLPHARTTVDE
Description: holdup assay. The arrangement: key: below the threshold = too weak to quantify, mostly under pKd 3.1 to 4. The following applies: plain residues with an end cap or a label only (N-terminal biotin on a linker: ado-ado).
For B1, the pKd result is recorded as “below the threshold”.
On the same count and under the same terms, to B2 belongs 3.74; to B3, “below the threshold”.

A further test concerns the target T4, DFNB31_3, Q9P202.
T4 sequence (Q9P202 811-907, limits assumed, looked up): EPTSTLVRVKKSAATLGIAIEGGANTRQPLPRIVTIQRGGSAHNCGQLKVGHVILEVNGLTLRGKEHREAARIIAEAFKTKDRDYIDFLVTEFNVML
The experiment in a line: holdup assay. On the set-up: key: below the threshold = too weak to quantify, mostly under pKd 3.1 to 4. The settings on record: plain residues with an end cap or a label only (N-terminal biotin on a linker: ado-ado).
For B1, the pKd came to 3.52.
Same read-out and setting: next, B2: “below the threshold”.
Regarding B3, the pKd result is given as “below the threshold”.

A further test has as its target T5, DLG3_2, Q92796.
T5 sequence (Q92796 221-321, limits assumed, looked up): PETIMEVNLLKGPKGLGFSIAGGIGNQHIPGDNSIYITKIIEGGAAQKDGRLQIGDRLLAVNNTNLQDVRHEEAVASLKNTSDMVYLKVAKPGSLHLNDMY
The experiment in a line: holdup assay. The arrangement: key: below the threshold = too weak to quantify, mostly under pKd 3.1 to 4. The settings on record: plain residues with an end cap or a label only (N-terminal biotin on a linker: ado-ado).
Turning to B1, the pKd came out at 3.91.
The same measure, in the same setting: next, B2: 4.61; B3: “below the threshold”.

Another test concerns the target T6, DLG3_3, Q92796.
T6 sequence (Q92796 374-475, limits assumed, looked up): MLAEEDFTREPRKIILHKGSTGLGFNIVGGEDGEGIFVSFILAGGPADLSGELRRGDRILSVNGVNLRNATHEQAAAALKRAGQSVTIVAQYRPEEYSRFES
Description: holdup assay. On the set-up: key: below the threshold = too weak to quantify, mostly under pKd 3.1 to 4. The following applies: plain residues with an end cap or a label only (N-terminal biotin on a linker: ado-ado).
Take B1: the pKd result was “below the threshold”.
With B2, the pKd turned out to be 5.16.
Same read-out and setting: next, B3: “below the threshold”.

The target in a further test is DLG4_3, P78352. The experiment in a line: holdup assay. On the set-up: key: below the threshold = too weak to quantify, mostly under pKd 3.1 to 4. The following applies: plain residues with an end cap or a label only (N-terminal biotin on a linker: ado-ado).
Chain of DLG4_3, P78352 (P78352 306-403): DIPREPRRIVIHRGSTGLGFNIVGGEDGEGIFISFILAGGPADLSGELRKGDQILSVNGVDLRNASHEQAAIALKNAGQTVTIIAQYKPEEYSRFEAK
Take B1: the pKd result was “below the threshold”.
The same measure, in the same setting: to B2 belongs 5.39.

A further test deals with GRASP, Q7Z6J2. The experiment in a line: holdup assay. The arrangement: key: below the threshold = too weak to quantify, mostly under pKd 3.1 to 4. The following applies: plain residues with an end cap or a label only (N-terminal biotin on a linker: ado-ado).
Chain of GRASP, Q7Z6J2 (Q7Z6J2 96-193): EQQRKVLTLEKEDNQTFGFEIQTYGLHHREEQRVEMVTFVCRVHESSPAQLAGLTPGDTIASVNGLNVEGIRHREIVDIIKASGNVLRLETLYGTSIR
As for B1, the pKd entry was “below the threshold”.
Still for that read-out and setting: next, B2: 4.11; B3: 4.08.

A further test deals with GRIP2_5, Q9C0E4. The experiment in a line: holdup assay. The arrangement: key: below the threshold = too weak to quantify, mostly under pKd 3.1 to 4. The following applies: plain residues with an end cap or a label only (N-terminal biotin on a linker: ado-ado).
Chain of GRIP2_5, Q9C0E4 (Q9C0E4 544-642): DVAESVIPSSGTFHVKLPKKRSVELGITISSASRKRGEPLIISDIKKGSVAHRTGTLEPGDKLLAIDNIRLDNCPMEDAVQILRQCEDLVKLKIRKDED
Turning to B1, the pKd entry was “below the threshold”.
For the molecule B2, the negative-log Kd (pKd) result was “below the threshold”.

For the next test, the target named is HTRA1, Q92743. The experiment in a line: holdup assay. The arrangement: key: below the threshold = too weak to quantify, mostly under pKd 3.1 to 4. The following applies: plain residues with an end cap or a label only (N-terminal biotin on a linker: ado-ado).
Chain of HTRA1, Q92743 (Q92743 360-477): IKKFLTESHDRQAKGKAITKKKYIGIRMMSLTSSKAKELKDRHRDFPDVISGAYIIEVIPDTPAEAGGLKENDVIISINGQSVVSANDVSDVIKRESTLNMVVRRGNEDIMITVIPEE
B1 returned a pKd of 5.31.
B2: the pKd result is listed as “below the threshold”.
Turning to B3, the pKd was found to be 4.51.

Another test concerns the target T7, HTRA3, P83110.
T7 sequence (P83110 354-453, limits assumed, looked up): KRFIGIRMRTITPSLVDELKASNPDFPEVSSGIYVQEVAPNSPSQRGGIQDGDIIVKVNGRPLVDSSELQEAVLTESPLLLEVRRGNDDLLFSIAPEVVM
The experiment in a line: holdup assay. The arrangement: key: below the threshold = too weak to quantify, mostly under pKd 3.1 to 4. The following applies: plain residues with an end cap or a label only (N-terminal biotin on a linker: ado-ado).
As to B1, the pKd was found to be 4.15.
Still for that read-out and setting: to B2 belongs “below the threshold”.
Turning to B3, the pKd entry is given as “below the threshold”.

The target of a further test is IL16_1, Q14005. The experiment in a line: holdup assay. The arrangement: key: below the threshold = too weak to quantify, mostly under pKd 3.1 to 4. The settings on record: plain residues with an end cap or a label only (N-terminal biotin on a linker: ado-ado).
Chain of IL16_1, Q14005 (Q14005 210-306): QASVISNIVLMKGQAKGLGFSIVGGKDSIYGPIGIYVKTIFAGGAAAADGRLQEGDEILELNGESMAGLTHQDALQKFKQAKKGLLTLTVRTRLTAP
Take B1: the pKd entry is “below the threshold”.
Take B2: the negative-log Kd (pKd) entry is reported as “below the threshold”.

A further test has as its target IL16_4, Q14005. The experiment in a line: holdup assay. The settings on record: plain residues with an end cap or a label only (N-terminal biotin on a linker: ado-ado). On the set-up: key: below the threshold = too weak to quantify, mostly under pKd 3.1 to 4.
Take B1: the pKd came out at 3.79.
The same measure, in the same setting: to B2 belongs 3.71.

For the next test, the target named is Inadl_2, Q8NI35. The experiment in a line: holdup assay. The arrangement: key: below the threshold = too weak to quantify, mostly under pKd 3.1 to 4. The following applies: plain residues with an end cap or a label only (N-terminal biotin on a linker: ado-ado).
Chain of Inadl_2, Q8NI35 (Q8NI35 238-335): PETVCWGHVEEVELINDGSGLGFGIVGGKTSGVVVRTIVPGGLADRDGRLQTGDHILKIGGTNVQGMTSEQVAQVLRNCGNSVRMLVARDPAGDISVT
Regarding B1, the negative-log Kd (pKd) turned out to be 4.67.
B2: the pKd entry is recorded as “below the threshold”.
Same read-out and setting: next, B3: “below the threshold”.

The next test has as its target Inadl_6, Q8NI35. The experiment in a line: holdup assay. The settings on record: plain residues with an end cap or a label only (N-terminal biotin on a linker: ado-ado). The arrangement: key: below the threshold = too weak to quantify, mostly under pKd 3.1 to 4.
B1: the pKd entry is “below the threshold”.
Still for that read-out and setting: next, B2: “below the threshold”.

The next test deals with Inadl_9, Q8NI35. The experiment in a line: holdup assay. On the set-up: key: below the threshold = too weak to quantify, mostly under pKd 3.1 to 4. The following applies: plain residues with an end cap or a label only (N-terminal biotin on a linker: ado-ado).
Chain of Inadl_9, Q8NI35 (Q8NI35 1530-1615): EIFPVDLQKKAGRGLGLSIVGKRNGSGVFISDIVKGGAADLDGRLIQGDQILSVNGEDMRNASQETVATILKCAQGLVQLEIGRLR
On to B1, for which the negative-log Kd (pKd) entry is “below the threshold”.
Still for that read-out and setting: next, B2: “below the threshold”; B3: “below the threshold”.

A further test has as its target LAP2, Q96RT1. Description: holdup assay. The arrangement: key: below the threshold = too weak to quantify, mostly under pKd 3.1 to 4. The following applies: plain residues with an end cap or a label only (N-terminal biotin on a linker: ado-ado).
Take B1: the pKd entry is “below the threshold”.
On the same count and under the same terms, to B2 belongs 4.32; to B3, “below the threshold”.

Another test deals with LNX1_2, Q8TBB1. Description: holdup assay. On the set-up: key: below the threshold = too weak to quantify, mostly under pKd 3.1 to 4. The settings on record: plain residues with an end cap or a label only (N-terminal biotin on a linker: ado-ado).
Chain of LNX1_2, Q8TBB1 (Q8TBB1 371-470): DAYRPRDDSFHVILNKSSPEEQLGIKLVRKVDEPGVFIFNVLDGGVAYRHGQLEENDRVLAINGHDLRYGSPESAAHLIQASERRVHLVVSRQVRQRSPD
For the molecule B1, the pKd was 3.66.
The same measure, in the same setting: to B2 belongs “below the threshold”.
The same measure, in the same setting: next, B3: “below the threshold”.

In another test the target is MAGI2_4, Q86UL8. The experiment in a line: holdup assay. The settings on record: plain residues with an end cap or a label only (N-terminal biotin on a linker: ado-ado). The arrangement: key: below the threshold = too weak to quantify, mostly under pKd 3.1 to 4.
Chain of MAGI2_4, Q86UL8 (Q86UL8 772-865): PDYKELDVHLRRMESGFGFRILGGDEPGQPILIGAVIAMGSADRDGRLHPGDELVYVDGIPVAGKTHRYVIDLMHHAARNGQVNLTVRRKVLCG
As to B1, the pKd turned out to be 3.47.
The same measure, in the same setting: next, B2: 3.87.

For a further test, the target named is MAST1, Q9Y2H9. The experiment in a line: holdup assay. On the set-up: key: below the threshold = too weak to quantify, mostly under pKd 3.1 to 4. The settings on record: plain residues with an end cap or a label only (N-terminal biotin on a linker: ado-ado).
Chain of MAST1, Q9Y2H9 (Q9Y2H9 962-1065): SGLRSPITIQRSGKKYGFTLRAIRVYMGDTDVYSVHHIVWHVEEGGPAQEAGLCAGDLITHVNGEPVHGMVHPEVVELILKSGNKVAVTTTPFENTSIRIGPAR
On to B1, for which the pKd result is reported as “below the threshold”.
Same read-out and setting: to B2 belongs 4.82; to B3, 4.37.

The next test has as its target T8, MPP6, Q9NZW5.
T8 sequence (Q9NZW5 125-219, limits assumed, looked up): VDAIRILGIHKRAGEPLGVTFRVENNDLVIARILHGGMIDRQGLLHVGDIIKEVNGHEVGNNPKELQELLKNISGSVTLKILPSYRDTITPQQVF
Description: holdup assay. On the set-up: key: below the threshold = too weak to quantify, mostly under pKd 3.1 to 4. The following applies: plain residues with an end cap or a label only (N-terminal biotin on a linker: ado-ado).
As to B1, the pKd amounted to 4.54.
Still for that read-out and setting: to B2 belongs “below the threshold”; to B3, “below the threshold”.

A further test concerns the target NHERF2_2, Q15599. The experiment in a line: holdup assay. On the set-up: key: below the threshold = too weak to quantify, mostly under pKd 3.1 to 4. The settings on record: plain residues with an end cap or a label only (N-terminal biotin on a linker: ado-ado).
On to B1, for which the pKd result is recorded as “below the threshold”.
The same measure, in the same setting: next, B2: 3.73.

The target of another test is T9, PARD3B_1, Q8TEW8.
T9 sequence (Q8TEW8 196-299, limits assumed, looked up): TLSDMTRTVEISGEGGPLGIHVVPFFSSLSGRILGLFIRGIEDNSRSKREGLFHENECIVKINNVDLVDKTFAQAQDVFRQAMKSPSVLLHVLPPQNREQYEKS
Description: holdup assay. On the set-up: key: below the threshold = too weak to quantify, mostly under pKd 3.1 to 4. The settings on record: plain residues with an end cap or a label only (N-terminal biotin on a linker: ado-ado).
For B1, the negative logarithm of the Kd (pKd) came out at 4.63.
Still for that read-out and setting: to B2 belongs 3.48.

Another test has as its target SCRIB_1, Q14160. The experiment in a line: holdup assay. On the set-up: key: below the threshold = too weak to quantify, mostly under pKd 3.1 to 4. The settings on record: plain residues with an end cap or a label only (N-terminal biotin on a linker: ado-ado).
B1: the pKd entry was “below the threshold”.
Same read-out and setting: next, B2: 4.88.

The target in another test is T10, SNTA1, Q13424.
T10 sequence (Q13424 82-180, limits assumed, looked up): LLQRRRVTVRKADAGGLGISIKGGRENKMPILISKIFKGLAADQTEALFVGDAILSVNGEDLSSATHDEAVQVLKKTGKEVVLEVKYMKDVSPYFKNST
The experiment in a line: holdup assay. On the set-up: key: below the threshold = too weak to quantify, mostly under pKd 3.1 to 4. The settings on record: plain residues with an end cap or a label only (N-terminal biotin on a linker: ado-ado).
As for B1, the pKd entry is “below the threshold”.
In turn, B2 returned a pKd of 4.74.
The same measure, in the same setting: next, B3: “below the threshold”.

The target in a further test is T11, SNTG1, Q9NSN8.
T11 sequence (Q9NSN8 52-150, limits assumed, looked up): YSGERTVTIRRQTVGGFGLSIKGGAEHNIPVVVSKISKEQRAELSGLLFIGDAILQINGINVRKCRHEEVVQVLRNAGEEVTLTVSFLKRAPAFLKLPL
Description: holdup assay. On the set-up: key: below the threshold = too weak to quantify, mostly under pKd 3.1 to 4. The settings on record: plain residues with an end cap or a label only (N-terminal biotin on a linker: ado-ado).
Turning to B1, the pKd result is reported as “below the threshold”.
With B2, the pKd was determined as 4.12.
Still for that read-out and setting: to B3 belongs “below the threshold”.
